From patent US20110274702A1

Key:
[1] = target: H7N7 A/Netherlands/219/03 HA protein (influenza A virus H7N7 A/Netherlands/219/03); assay: ELISA on HA
[2] = target: H7N7 A/Netherlands/219/03 HA protein (influenza A virus H7N7 A/Netherlands/219/03); assay: ELISA on coated HA

| Binder | Binding to HA by ELISA (% of subtype specific control antibodies) [1] | EC50 [2] |
| --- | --- | --- |
| FI6 variant 2 (antibody, V domains shown) VH: QVQLVQSGGGVVQPGRSLRLSCVASGFTFSTYAMHWVRQAPGRGLEWVAVISYDGNYKYYADSVKGRFSISRDNSNNTLHLEMNTLRTEDTALYYCAKDSQLRSLLYFEWLSQGYFDPWGQGTLVTVTS VL: DIQMTQSPDSLAVSLGARATINCKSSQSVTFNYKNYLAWYQQKPGQPPKVLIYWASARESGVPDRFSGSGSGTDFTLTISSLQAEDVAVYYCQQHYRTPPTFGQGTKVEIK | 87.9% | 0.026 µg/mL |
| FI28 variant 1 (antibody, V domains shown) VH: EVQLVESGGGAVQPGESLKLSCAASGFTFSNYGMHWVRQAPGKGLEWVAVISYDGSNKYYADSVKGRFTISRDNSKDTLYLQMNSLRAEDTALFYCAKERPLRLLRYFDWLSGGANDYWGQGTLVTVSS VL: DIVMTQSPDSLAVSLGERATINCKSSQSVLYSSNNKNYLAWYQQKPGQPPKLLIDWASTRESGVPDRFSGSGSGTDFTLTISNLQVEDVAVYYCQQYYRSPSFGQGTKLEIK | -0.5% |  |
